Test results: article PMC3117843

Experiments:
[1] = biological target: HCV envelope glycoproteins E1 and E2 on HCV genotype 3a virus from patients' serum (Hepatitis C virus genotype 3a)
[2] = biological target: HCV envelope glycoproteins E1 and E2 of genotype 3a on HCV pseudoparticles (Hepatitis C virus genotype 3a)

B1: Galanthus nivalis agglutinin (natural protein)
chain: SCLSDNILYSGETLSTGEFLNYGSFVFIMQEDCNLVLYDVDKPIWATNTGGLSRSCFLSMQTDGNLVVYNPSNKPIWASNTGGQNGNYVCILQKDRNVVIYGTDRWATG
- infection of Huh-7 cells by HCV 3a virus pre-incubated with GNA, HCV RNA by quantitative RT-PCR, EC50 (Figure 4) [1]: 1 µg
- infection of Huh-7 cells by HCV 3a virus pre-incubated with GNA, HCV RNA by quantitative RT-PCR, EC90 (Figure 4) [1]: 5 µg
- inhibition of HCVpp entry into Huh-7 cells, concentration of GNA for 50% reduction (Figure 3a and 3b) [2]: 1 µg
